Reference: IntAct's records for PubMed 22580824

B1: Kinesin-like protein KIF23 (Homo sapiens), Q02241 (parent)
chain: MKSARAKTPRKPTVKKGSQTNLKDPVGVYCRVRPLGFPDQECCIEVINNTTVQLHTPEGYRLNRNGDYKETQYSFKQVFGTHTTQKELFDVVANPLVNDLIHGKNGLLFTYGVTGSGKTHTMTGSPGEGGLLPRCLDMIFNSIGSFQAKRYVFKSNDRNSMDIQCEVDALLERQKREAMPNPKTSSSKRQVDPEFADMITVQEFCKAEEVDEDSVYGVFVSYIEIYNNYIYDLLEEVPFDPIKPKPPQSKLLREDKNHNMYVAGCTEVEVKSTEEAFEVFWRGQKKRRIANTHLNRESSRSHSVFNIKLVQAPLDADGDNVLQEKEQITISQLSLVDLAGSERTNRTRAEGNRLREAGNINQSLMTLRTCMDVLRENQMYGTNKMVPYRDSKLTHLFKNYFDGEGKVRMIVCVNPKAEDYEENLQVMRFAEVTQEVEVARPVDKAICGLTPGRRYRNQPRGPVGNEPLVTDVVLQSFPPLPSCEILDINDEQTLPRLIEALEKRHNLRQMMIDEFNKQSNAFKALLQEFDNAVLSKENHMQGKLNEKEKMISGQKLEIERLEKKNKTLEYKIEILEKTTTIYEEDKRNLQQELETQNQKLQRQFSDKRRLEARLQGMVTETTMKWEKECERRVAAKQLEMQNKLWVKDEKLKQLKAIVTEPKTEKPERPSRERDREKVTQRSVSPSPVPLSSNYIAQISNGQQLMSQPQLHRRSNSCSSISVASCISEWEQKIPTYNTPLKVTSIARRRQQEPGQSKTCIVSDRRRGMYWTEGREVVPTFRNEIEIEEDHCGRLLFQPDQNAPPIRLRHRRSRSAGDRWVDHKPASNMQTETVMQPHVPHAITVSVANEKALAKCEKYMLTHQELASDGEIETKLIKGDIYKTRGGGQSVQFTDIETLKQESPNGSRKRRSSTVAPAQPDGAESEWTDVETRCSVAVEMRAGSQLGPGYQHHAQPKRKKP
partner: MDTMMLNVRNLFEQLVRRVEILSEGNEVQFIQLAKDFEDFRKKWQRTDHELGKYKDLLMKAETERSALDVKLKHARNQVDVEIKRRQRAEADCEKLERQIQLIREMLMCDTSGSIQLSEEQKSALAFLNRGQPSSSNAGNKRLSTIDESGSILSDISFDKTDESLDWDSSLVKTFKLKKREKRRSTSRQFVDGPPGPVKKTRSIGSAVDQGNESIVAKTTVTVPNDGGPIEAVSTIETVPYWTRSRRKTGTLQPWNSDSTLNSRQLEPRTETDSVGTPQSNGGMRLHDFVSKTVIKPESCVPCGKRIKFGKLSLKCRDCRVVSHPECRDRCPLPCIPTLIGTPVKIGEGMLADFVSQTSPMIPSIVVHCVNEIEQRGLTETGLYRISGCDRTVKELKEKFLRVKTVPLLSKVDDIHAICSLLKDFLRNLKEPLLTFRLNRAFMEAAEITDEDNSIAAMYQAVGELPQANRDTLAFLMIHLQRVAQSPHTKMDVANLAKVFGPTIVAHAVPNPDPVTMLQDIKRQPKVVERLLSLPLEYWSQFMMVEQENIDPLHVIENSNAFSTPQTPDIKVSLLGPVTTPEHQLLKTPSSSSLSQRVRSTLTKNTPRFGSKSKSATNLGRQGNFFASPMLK
B2: Kinesin-like protein KIF23 (Homo sapiens), Q02241 (parent)
chain: B1 chain
B3: ADP-ribosylation factor 6 (Homo sapiens), P62330 (parent)
chain: MGKVLSKIFGNKEMRILMLGLDAAGKTTILYKLKLGQSVTTIPTVGFNVETVTYKNVKFNVWDVGGQDKIRPLWRHYYTGTQGLIFVVDCADRDRIDEARQELHRIINDREMRDAIILIFANKQDLPDAMKPHEIQEKLGLTRIRDRNWYVQPSCATSGDGLYEGLTWLTSNYKS
partner: B1 chain

Variants of: B1
Settings: with rgap1_human RACGAP1, Q9H0H5

Variant	effect of a mutation on the interaction
V890A	increasing interaction

Variants of: B1
Settings: with rgap1_human RACGAP1, Q9H0H5
Remark: another data set of the same source

Variant	effect of a mutation on the interaction
S814A	increasing interaction

Variants of: B2
Settings: with arf6_human ARF6, P62330

Variant	effect of a mutation on the interaction
T873A	disrupting interaction

Variants of: B2
Settings: with arf6_human ARF6, P62330
Remark: another data set of the same source

Variant	effect of a mutation on the interaction
T873A	decreasing interaction

Variants of: B2
Settings: with arf6_human ARF6, P62330
Remark: another data set of the same source

Variant	effect of a mutation on the interaction
E864A	disrupting interaction

Variants of: B2
Settings: with arf6_human ARF6, P62330
Remark: another data set of the same source

Variant	effect of a mutation on the interaction
F892A	disrupting interaction

Variants of: B2
Settings: with arf6_human ARF6, P62330
Remark: another data set of the same source

Variant	effect of a mutation on the interaction
V890A	disrupting interaction

Variants of: B2
Settings: with arf6_human ARF6, P62330
Remark: another data set of the same source

Variant	effect of a mutation on the interaction
V890A	decreasing interaction

Variants of: B2
Settings: with arf6_human ARF6, P62330
Remark: another data set of the same source

Variant	effect of a mutation on the interaction
Q863A	disrupting interaction

Variants of: B2
Settings: with arf6_human ARF6, P62330
Remark: another data set of the same source

Variant	effect of a mutation on the interaction
Q863A	decreasing interaction

Variants of: B2
Settings: with arf6_human ARF6, P62330
Remark: another data set of the same source

Variant	effect of a mutation on the interaction
T779A	disrupting interaction

Variants of: B2
Settings: with arf6_human ARF6, P62330
Remark: another data set of the same source

Variant	effect of a mutation on the interaction
T779A	decreasing interaction

Variants of: B2
Settings: with arf6_human ARF6, P62330
Remark: another data set of the same source

Variant	effect of a mutation on the interaction
L794A	disrupting interaction

Variants of: B2
Settings: with arf6_human ARF6, P62330
Remark: another data set of the same source

Variant	effect of a mutation on the interaction
Y858A	disrupting interaction

Variants of: B2
Settings: with arf6_human ARF6, P62330
Remark: another data set of the same source

Variant	effect of a mutation on the interaction
L860A	disrupting interaction

Variants of: B2
Settings: with arf6_human ARF6, P62330
Remark: another data set of the same source

Variant	effect of a mutation on the interaction
L860A	decreasing interaction

Variants of: B2
Settings: with arf6_human ARF6, P62330
Remark: another data set of the same source

Variant	effect of a mutation on the interaction
E896A	disrupting interaction

Variants of: B2
Settings: with arf6_human ARF6, P62330
Remark: another data set of the same source

Variant	effect of a mutation on the interaction
K877A	disrupting interaction

Variants of: B2
Settings: with arf6_human ARF6, P62330
Remark: another data set of the same source

Variant	effect of a mutation on the interaction
K877A	decreasing interaction

Variants of: B3
Settings: with kif23_human KIF23, Q02241

Variant	effect of a mutation on the interaction
T27N	disrupting interaction
